Patent publication US20160235814A1

Molecular target: human IgG (coated on 96-well plates to form immune complexes, IC) (human)
Assay: cell-based or functional assay

ROS production by IC-activated human neutrophils (scale: % reduction of ROS production at 0.01 mg/ml sCD32): 30
ROS production by IC-activated human neutrophils (scale: % reduction of ROS production at 0.1 mg/ml sCD32): 65
ROS production by IC-activated human neutrophils (scale: % reduction of ROS production at 0.5 mg/ml sCD32): 75
Substance: Human sCD32 (SM101), recombinant soluble human FcγRIIB (from UniProt P31994 46-221) (receptor)
